The values below come from patent US20240083986A1 (published 2024).

For assay [1], the target named is T1, natural Bet v 1 (Indoor, Cat #NA-BV1-1) (Betula verrucosa (European white birch, …, UniProt P15494 2-160)).
T1 construct: Bought natural protein purified from birch pollen; also called nBet v 1
T1 sequence: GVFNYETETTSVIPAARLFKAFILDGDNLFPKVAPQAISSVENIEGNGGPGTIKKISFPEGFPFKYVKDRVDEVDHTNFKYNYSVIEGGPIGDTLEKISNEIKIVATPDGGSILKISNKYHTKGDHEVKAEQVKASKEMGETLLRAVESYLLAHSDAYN
Briefly: SPR Biacore, mAb captured on anti-hFc, 25C.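 Also: rate constants from sensorgrams fitted to a 1:1 model with mass transport limitation, KD and t½ derived from kinetic constants, run in HBS-ET buffer at pH 7.4.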 In general terms: In SPR one partner is held on a chip, and binding of the other changes the refractive index at the surface.

For assay [2], the target named is T1, natural Bet v 1 (Indoor, Cat #NA-BV1-1). Briefly: SPR Biacore, mAb captured on anti-hFc, 37C.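 Also: purified anti-Bet v 1 monoclonal antibodies, HBS-ET running buffer pH 7.4, rate constants from 1:1 model fit with mass transport limitation, KD and t½ calculated from kinetic constants.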
Assay [3] has as its target T2, Celery (Api g 1, MyBiosource, Cat #MBS1171376) (Celery, UniProt P49372 1-154, limits assumed).
T2 construct: Bought reagent
T2 sequence (looked up): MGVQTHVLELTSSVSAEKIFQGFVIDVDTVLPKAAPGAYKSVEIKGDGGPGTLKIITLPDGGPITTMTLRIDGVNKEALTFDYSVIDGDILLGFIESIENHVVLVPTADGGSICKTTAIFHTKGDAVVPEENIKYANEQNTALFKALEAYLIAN
Nature of the assay: SPR Biacore, 25C.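 Also: binding of related allergens to purified monoclonal anti-Bet v 1 antibodies by surface plasmon resonance in HEPES-buffered saline pH 7.4, kinetics fitted to a 1:1 model with mass transport.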

In assay [4] the target is T3, Alder (Aln g 1, MyBiosource, Cat #MBS1041484) (Alder, UniProt P38948 2-160, limits assumed).
T3 construct: Bought reagent
T3 sequence (looked up): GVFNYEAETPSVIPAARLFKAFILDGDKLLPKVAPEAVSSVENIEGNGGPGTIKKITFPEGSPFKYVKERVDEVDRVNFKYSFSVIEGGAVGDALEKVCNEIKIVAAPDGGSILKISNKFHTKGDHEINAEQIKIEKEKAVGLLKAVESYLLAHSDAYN
Briefly: SPR Biacore, 25C.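 Also: binding of related allergens to purified monoclonal anti-Bet v 1 antibodies by surface plasmon resonance in HEPES-buffered saline pH 7.4, kinetics fitted to a 1:1 model with mass transport.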

In assay [5] the target is T4, European Hornbeam (Car b 1 isoform 1A & 1B, MyBiosource, Cat #MBS1200018) (European Hornbeam, UniProt P38949 2-160).
T4 construct: Bought reagent
T4 sequence (looked up): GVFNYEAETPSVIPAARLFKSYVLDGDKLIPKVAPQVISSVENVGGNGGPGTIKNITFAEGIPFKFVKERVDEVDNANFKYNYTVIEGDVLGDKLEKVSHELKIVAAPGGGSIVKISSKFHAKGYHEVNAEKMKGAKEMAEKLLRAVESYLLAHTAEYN
Briefly: SPR Biacore, 25C.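 Also: binding of related allergens to purified monoclonal anti-Bet v 1 antibodies by surface plasmon resonance in HEPES-buffered saline pH 7.4, kinetics fitted to a 1:1 model with mass transport.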

Assay [6] deals with T5, Apple (Mal d 1, MyBiosource, Cat #MBS1224919) (Apple, UniProt P43211 2-159, limits assumed).
T5 construct: Bought reagent
T5 sequence (looked up): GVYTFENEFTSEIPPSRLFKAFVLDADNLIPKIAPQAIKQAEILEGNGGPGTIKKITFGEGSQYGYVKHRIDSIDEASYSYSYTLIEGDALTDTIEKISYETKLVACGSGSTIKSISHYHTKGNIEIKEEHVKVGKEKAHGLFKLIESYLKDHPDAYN
Briefly: SPR Biacore, 25C.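 Also: binding of related allergens to purified monoclonal anti-Bet v 1 antibodies by surface plasmon resonance in HEPES-buffered saline pH 7.4, kinetics fitted to a 1:1 model with mass transport.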

The target of assay [7] is T6, European Hornbeam (Car b 1 isoform 2, MyBiosource, Cat #MBS1043940) (European Hornbeam, UniProt P38950 2-160, limits assumed).
T6 construct: Bought reagent
T6 sequence (looked up): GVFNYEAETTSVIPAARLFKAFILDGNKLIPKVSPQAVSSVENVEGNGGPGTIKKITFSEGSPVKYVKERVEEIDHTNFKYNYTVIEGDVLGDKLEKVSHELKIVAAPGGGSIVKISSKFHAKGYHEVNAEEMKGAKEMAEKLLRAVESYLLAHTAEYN
Nature of the assay: SPR Biacore, 25C.

B1: H4H16979P (antibody, human IgG4, V domains shown)
VH: QVQLVQSGAEVKKPGASVKVSCKASGYTFIAYYLHWVRQAPGQGLEWMGLLNPYTGGSYYTQKFQGRVTMTRDTSIDTAYMELNSLRSDDTAIYYCARDKRSYYIPYAFEIWGQGTMVTVSS
VL: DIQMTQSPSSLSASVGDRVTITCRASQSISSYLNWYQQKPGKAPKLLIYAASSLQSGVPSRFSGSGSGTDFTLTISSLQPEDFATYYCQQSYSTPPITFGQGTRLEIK
Regarding B1, the “100 nM natural Bet v 1 Bound (RU)” value in assay [1] stood at 41 RU; in assay [2], 52 RU. For the same molecule, the dissociation constant (Kd) (usually a measure of binding affinity in units of concentration) turned out to be 1.21 nM in assay [1] and 1.8 nM in assay [2]. The dissociation rate constant (koff) (usually a measure of how fast the partners let go of each other) was 0.000278 s⁻¹ in assay [1] and 0.000616 s⁻¹ in assay [2]. In addition, the kon (in general, the rate constant with which the complex forms) came out at 230000 M⁻¹ s⁻¹ in assay [1] and 342000 M⁻¹ s⁻¹ in assay [2]. For the same molecule, the values for the t½ in assay [1] and in assay [2] were 42 min and 19 min, respectively. Moreover, the binding result in assay [3], in assay [4], in assay [5] and in assay [6] was “no binding (tested: 100 nM)” each time.

B2: H4H16946P (antibody, human IgG4, V domains shown)
VH: EVQLVESGGGLVQPGGSLRLSCVASGFTFSNYDMNWVRQAPGEGLEWISYISYSDHNIYYIDSVKGRFTISRDNAKNSLYLQMNSLRAEDTAIYYCAREALASSSFDYWGQGTLVTVSS
VL: EIVMTQSPATLSVSPGERVTLSCRASQSVSGNLAWYQQKPGQAPRLLIYSASTGATGVPARFSGSGSGTEFTLTISSLQSEDFALYYCQQYNKWPRTIGQGTKVEIK
Take B2: in assay [1], the “100 nM natural Bet v 1 Bound (RU)” value came out at 74 RU; the affinity, expressed as Kd, was 0.982 nM; the koff is 0.000201 s⁻¹; the on-rate (kon) is 205000 M⁻¹ s⁻¹. The t½ (usually the time in which the quantity being followed falls by half) in assay [1] amounted to 58 min. Further, in assay [2], the “100 nM natural Bet v 1 Bound (RU)” value is 93 RU, binding was characterised by a dissociation constant (Kd) of 2.08 nM, the koff came to 0.000601 s⁻¹ and the kon was 289000 M⁻¹ s⁻¹. In addition, the t½ in assay [2] turned out to be 19 min. For the same molecule, the binding result in assay [3] is on record as “no binding (tested: 100 nM)”. For the same molecule, the binding result in assay [4] is “no binding (tested: 100 nM)”. Also, in assay [6], the binding result is reported as “no binding (tested: 100 nM)”.

B3: H4H16960P (antibody, human IgG4, V domains shown)
VH: QLQLQESGPGLVRPSETLSLTCTVSGGSISSSNYWWGWIRQPPGKGLEWIGSIYYSGITYYNPSLKSRVTISADTSKDQFSLKLRSVTAADTAVYYCAKLEWLRLDFWGQGTTVTVSS
VL: DIQMTQSPSSVSASVGDRVTITCRASQGISSWLVWYQQKPGKVPKLLIYAASSLQSGVPLRFSGSGSGTDFTLTISSLQPEDFATYYCQQAKSFPLTFGQGTRLEIK
B3: in assay [1], the “100 nM natural Bet v 1 Bound (RU)” value amounted to 57 RU, binding was put at a Kd of 1.64 nM, the off-rate (koff) was 0.00069 s⁻¹ and the kon is 422000 M⁻¹ s⁻¹. Moreover, in assay [1], the t½ stood at 17 min. Also, in assay [2], the “100 nM natural Bet v 1 Bound (RU)” value was 65 RU; the affinity, expressed as Kd, was 2.54 nM; the dissociation rate constant (koff) came out at 0.00168 s⁻¹; the kon worked out at 662000 M⁻¹ s⁻¹. Further, the t½ in assay [2] was found to be 6.8 min. For the same molecule, the binding result in assay [3] is “no binding (tested: 100 nM)”. In addition, the binding result in assay [5] is given as “no binding (tested: 100 nM)”. The binding result in assay [6] is given as “no binding (tested: 100 nM)”. Besides, the binding result in assay [7] was “no binding (tested: 100 nM)”.

B4: H4H17038P2 (antibody, human IgG4 S228P, kappa, V domains shown)
VH: EVQLVESGGDLVQPGGSLRLSCAASGFTFSSYEMNWVRQAPGKGLEWVSFISDSSSNIYYADSVKGRFTISRDNAKKSLYLQMTSLRAEDTAVYYCAREAIGSTSFDNWGQGTLVTVSS
VL: EIVMTQSPATLSVSPGERATLSCRASQSVSSSLAWYQQKPGQAPRRLIYSASTRATGIPARFSGSGSGTEFTLTISSLQSEDFAIYYCHQYNNWPLTFGGGTKVEIKR
notes: human IgG4; also called REGN5714; MAB3
Take B4: the binding result in assay [3], in assay [4] and in assay [6] was “no binding (tested: 100 nM)” each time.

B5: H4H16991P (antibody, human IgG4, V domains shown)
VH: QVQLVQSGAEVRKPGASVKVSCKASGYTFTGYYLHWVRQAPGQGLEWMGLINPNTGGTNFAQKFQGRVTMTRDSSISAAYMELSRLRSDDTAVYYCARQHWNRYFDNWGQGTLVTVSS
VL: DIQMTQSPSTLSASVGDRVTITCRASQSVGNWLAWYQQKPGKAPKLLIQEASSIESGVPSRFSGSGSGTEFTLIVSSLQPDDFATYYCQQYNSYSWTFGHGTKVEIK
As to B5, the “100 nM natural Bet v 1 Bound (RU)” value was found to be 57 RU in assay [1] and 66 RU in assay [2]. Further, the Kd in assay [1] turned out to be 1.06 nM; in assay [2] it was 2.16 nM. Besides, the dissociation rate constant (koff) is 0.000312 s⁻¹ in assay [1] and 0.00108 s⁻¹ in assay [2]. In addition, the results for the on-rate (kon) in assay [1] and in assay [2] were 295000 M⁻¹ s⁻¹ and 500000 M⁻¹ s⁻¹, respectively. The t½ is 37 min in assay [1] and 11 min in assay [2]. Further, the binding result in assay [3], in assay [4], in assay [5] and in assay [6] was “no binding (tested: 100 nM)” throughout.

B6: H4H17033P (antibody, human IgG4, V domains shown)
VH: QVQLVQSGAEVKKPGASVKVSCKASGYTFAAHYMHWVRQAPGQGLEWMGWINTYTGGTNYGQKFQGRVTMTRDTSITTAYMELSRLRSDDTAVYYCARDRRNWNFVFEYWGQGTLVTVSS
VL: DIQMTQSPSSLSASVGDRVTISCRASQNIKNYLNWYQQKPGKAPKLLIYEASNLQSGAPSRFSGSGSGTDFTLTISSLEPEDFATYYCQQSFSIPWTFGQGTKVEIK
Regarding B6, in assay [1], the “100 nM natural Bet v 1 Bound (RU)” value turned out to be 61 RU, the Kd stood at 1.19 nM, the koff was determined as 0.000469 s⁻¹ and the kon is 394000 M⁻¹ s⁻¹. Further, in assay [1], the t½ turned out to be 25 min. In assay [2], the “100 nM natural Bet v 1 Bound (RU)” value is 74 RU, the Kd worked out at 1.9 nM, the koff was determined as 0.00119 s⁻¹ and the kon turned out to be 627000 M⁻¹ s⁻¹. In assay [2], this molecule gave a t½ of 10 min. Besides, in assay [4], the binding result is reported as “no binding (tested: 100 nM)”. Moreover, the binding result in assay [5] is listed as “no binding (tested: 100 nM)”. Also, the binding result in assay [6] is listed as “no binding (tested: 100 nM)”.

B7: H4H16950P (antibody, human IgG4, V domains shown)
VH: QVQLVQSGAEVKKPGASVKVSCKTSGYTFTNYGITWVRQAPGQGLEWMGWISAYNGNTNYAQNVQGRVTMTTDTSTSTAYMEVRSLRSDDTAVYYCARRSSMLHFQHWGQGTLVTVSS
VL: DIVMTQSPDSLAVSLGERATINCKSSQHVLYDSSNENYLAWFQQKPGQPPKLLIYWASTRESGVPDRFSGSGSGTDFTLTISSLQAEDVAVYYCQQYSSAPYTFGQGTKLEIK
In the case of B7, in assay [1], the “100 nM natural Bet v 1 Bound (RU)” value was 58 RU, the Kd amounted to 5.23 nM, the off-rate constant (koff) is 0.000503 s⁻¹ and the kon was 96100 M⁻¹ s⁻¹. The molecule also gave a t½ in assay [1] of 23 min. Also, in assay [2], the “100 nM natural Bet v 1 Bound (RU)” value came out at 76 RU; the affinity, expressed as Kd, was 8.57 nM; the koff is 0.00121 s⁻¹; the kon turned out to be 141000 M⁻¹ s⁻¹. In addition, in assay [2], the t½ was 10 min. In assay [3], the binding result is “no binding (tested: 100 nM)”. For the same molecule, in assay [5], the binding result is recorded as “no binding (tested: 100 nM)”. Further, in assay [6], the binding result is reported as “no binding (tested: 100 nM)”. Also, in assay [7], the binding result is recorded as “no binding (tested: 100 nM)”.
